Results on 2 substances are retold here after article PMC4680927.

As a reminder, the stoichiometry N is a count of units in the complex or per binding partner.

For assay [1], the target named is full-length β-N-acetylglucosaminidase from Rhizomucor miehei (RmNag) (Rhizomucor miehei). Put plainly: SEC; size-exclusion chromatography of full-length RmNag; native molecular mass approx. 230 kDa; data not shown. For orientation: In gel filtration, larger molecules generally elute earlier.
In assay [2] the target is N-acetyltransferase C-terminal region (CTR) of RmNag (Rhizomucor miehei). Kind of assay: not stated; NTR and CTR 'in solution'; the sentence names no method (it follows the SEC estimate for the full-length protein).

As to “full-length β-N-acetylglucosaminidase from Rhizomucor miehei (RmNag) (enzyme)”, the stoichiometry N in assay [1] was 2. Consider “N-acetyltransferase C-terminal region (CTR) of RmNag (domain or fragment)”, for which the stoichiometry N in assay [2] is 2.
